Laboratory results as given in publication doi:10.1101/2022.07.11.499521.

Target: Vairimorpha necatrix 20S proteasome core particle (Vairimorpha necatrix (endogenous in spores))
Assay: cryo-EM structure

## Vairimorpha necatrix 19S regulatory particle (complex)
  percent of proteasome particles capped by RP: 12%
